Molecular target: SeMet-labeled MtMce4A_(39–140) (Mycobacterium tuberculosis H37Rv)
Test: crystal structure; SeMet-labeled protein, 7.5 mg ml^−1; 100 mM MES, 700 mM ammonium sulfate pH 6.0, 22°C; space group P6_(5), 3.6 Å, SAD phasing

Substance: SeMet-labeled MtMce4A_(39–140) (domain or fragment)
- stoichiometry N: 2
